We go through 72 sequences from the supplement of paper PMC10567573.

± gives the standard deviation.

The data set can be described thus: protein stability index of a GFP-peptide fusion (GPS, HEK-293T) (PSI 1-6); higher = more stable.
The mark [1] stands for this setting: treatment: DMSO, c terminus: a fixed tail appended.
The mark [2] stands for this setting: treatment: MLN4924 1 uM, 8 h, c terminus: a fixed tail appended.
Where [3] appears, read: treatment: DMSO, c terminus: native.
[4] abbreviates: treatment: MLN4924 1 uM, 8 h, c terminus: native.
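Also: 24-mer peptide tiles fused after GFP, lentivirally expressed, FACS-sorted into six equal bins by GFP/DsRed ratio, decoded by Illumina sequencing, PSI is the read-weighted mean bin number.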

On to PHQPVTAITRVSDRFSGETSAAAL [SMTNL2], for which the protein stability index turned out to be 4.32 ± 0.39 under setting [1] and 4.32 ± 0.17 under setting [2].

On to PKLREETAHMLGVRELRIAFREFD [CABP4], for which the protein stability index came out at 2.92 ± 0.29 under setting [1] and 3.17 ± 0.29 under setting [2].

In the case of PLGLEVDQFLEDVRLQERTSGGLL [NOP53], the protein stability index was determined as 4.42 ± 0.14 under setting [1] and 4.47 ± 0.12 under setting [2].

Regarding PLNPKPHKKKSPGEKPHRCPQCGK [ZNF449], the protein stability index is, setting by setting: under setting [1], 4.24 ± 0.12; under setting [2], 4.49 ± 0.35.

On to PLRAVHINLEEKEKQIRSFLIEGP [PLEKHN1], for which the protein stability index runs as follows: under setting [1], 3.7 ± 0.31; under setting [2], 3.8 ± 0.2.

PNTAVSVHVSESSDDDEEEEENIG [ACBD3]: the protein stability index came out at 5.5 ± 0.3 under setting [1] and 5.63 ± 0.12 under setting [2].

For PPQPMVPLAVENQAGGEGAGGELG [PBXIP1], the protein stability index is, setting by setting: under setting [1], 5.52 ± 0.11; under setting [2], 5.51 ± 0.12.

In the case of PPTRGPPPSYGGSSRYDDYSSSRD [RBMX], the protein stability index is, setting by setting: under setting [1], 5.05 ± 0.23; under setting [2], 4.93 ± 0.19.

Take PQDGSYPRQADHDDHECCERVVIN [KCNA1]: the protein stability index runs as follows: under setting [1], 5.22 ± 0.41; under setting [2], 5.18 ± 0.34.

As to PQDSGTAAWKGRVLLPETQKRQQL [C22orf31], the protein stability index under setting [1] turned out to be 4.44 ± 0.17 and the protein stability index under setting [2] came to 4.27 ± 0.29.

With PQEESEESNVSMASLGEKRDHHST [CHGB], the protein stability index reads like this: under setting [1], 5.59 ± 0.37; under setting [2], 5.58 ± 0.16.

As for PQSPPSCRAPPPEARGIRAPPLPD [FCHO1], the protein stability index is, setting by setting: under setting [1], 4.92 ± 0.12; under setting [2], 5.09 ± 0.24.

PREQAARFCSEIKSSKYGEGHQAW [SEPHS2] registered a protein stability index under setting [1] of 3.36 ± 0.12 and a protein stability index under setting [2] of 3.52 ± 0.19.

With PRMLRESGHGDAHLQEYAGNFQGI [FATE1], the protein stability index is, setting by setting: under setting [1], 4 ± 0.24; under setting [2], 4.22 ± 0.13.

Take PSMIATGSVGAAICGLQQDEEVSS [CCND2]: the protein stability index by setting is: under setting [1], 5.41 ± 0.1; under setting [2], 5.15 ± 0.27.

Turning to PTQVPAAEDYLTWKEWGFTGVQEV [SPAG8], the protein stability index by setting is: under setting [1], 3.5 ± 0.24; under setting [2], 3.59 ± 0.31.

The sequence PTVHVEVHQRGSSTAKKEDINLSV [TRIP13] registered a protein stability index under setting [1] of 4.83 ± 0.2 and a protein stability index under setting [2] of 4.84 ± 0.29.

As to PVIAAPSMWTRPQIKDFKEKIQQD [ACBD3], the protein stability index under setting [1] is 4.59 ± 0.32 and the protein stability index under setting [2] came to 4.41 ± 0.4.

Take PVKELAALPKATILDLSCNKLTTL [LRRC59]: the protein stability index is 3.26 ± 0.1 under setting [1] and 3.43 ± 0.35 under setting [2].

As for PVRAYDFLLKFLLVGDSDVGKGEI [RAB40B], the protein stability index runs as follows: under setting [1], 2.28 ± 0.3; under setting [2], 2.62 ± 0.58.

Regarding PYYLRSFLVVLKTVLENEDDMLLF [FAN1], the protein stability index is 2.27 ± 0.36 under setting [1] and 2.26 ± 0.25 under setting [2].

Take QACARNILVQTPESESPQSHRAAG [TRIM9]: the protein stability index is, setting by setting: under setting [1], 4.46 ± 0.16; under setting [2], 4.5 ± 0.27.

Regarding QACMGGRCLHMDQLQDFNIPQAGG [ADAMTS4], the protein stability index was 3.38 ± 0.15 under setting [1] and 3.21 ± 0.09 under setting [2].

As to QAQQKKAPAKKANSTTTAGRDHFL [BRD3], the protein stability index was determined as 4.44 ± 0.48 under setting [1] and 4.62 ± 0.15 under setting [2].

QARHQLVLTAVDGGTPARSGTTLI [PCDHGC5] returned a protein stability index under setting [1] of 3.18 ± 0.083 and a protein stability index under setting [2] of 3.15 ± 0.38.

In the case of QEGSSGMELSWGQSPGQPVQGGSE [TEX19], the protein stability index turned out to be 5.28 ± 0.26 under setting [1] and 5.29 ± 0.51 under setting [2].

In turn, QEKEELRELNDRLAVYIDKVRSLE [LMNB1] had a protein stability index under setting [1] of 3.72 ± 0.31 and a protein stability index under setting [2] of 3.9 ± 0.2.

In the case of QGRKIAEVCCTSIVYATEKKQTKV [KCTD13], the protein stability index is 3.39 ± 0.15 under setting [1] and 3.61 ± 0.28 under setting [2].

On to QIKTLLALSCHEQEMVVSSLVIGA [SLC2A12], for which the protein stability index turned out to be 3.78 ± 0.47 under setting [1] and 3.1 ± 0.55 under setting [2].

QIPVTDSGRHILEDSCAELGESKE [SDE2]: the protein stability index by setting is: under setting [1], 5.35 ± 0.12; under setting [2], 5.19 ± 0.38.

Regarding QIRTVIQYQTVRYDILPLSPVSRN [CTDNEP1], the protein stability index reads like this: under setting [1], 2.36 ± 0.2; under setting [2], 2.26 ± 0.13.

In the case of QKASLLIQQALTMFPGVLLPLLES [TCF25], the protein stability index is 3.23 ± 0.48 under setting [1] and 3.51 ± 0.29 under setting [2].

Turning to QKKDCVPLMKPHRPWADTCSSSGK [HESX1], the protein stability index came out at 3.49 ± 0.52 under setting [1] and 3.67 ± 0.53 under setting [2].

Regarding QKKQKLEQKAAGSASAKRVWNMTA [FATE1], the protein stability index reads like this: under setting [1], 4.01 ± 0.15; under setting [2], 3.93 ± 0.37.

In the case of QLDREAQARHQLVLTAVDGGTPAR [PCDHGC5], the protein stability index is, setting by setting: under setting [1], 4.59 ± 0.1; under setting [2], 4.76 ± 0.18.

Consider QLTGHQRIHSGEEPHKCPECGKRF [ZNF449], for which the protein stability index runs as follows: under setting [1], 4.01 ± 0.28; under setting [2], 4.82 ± 0.38.

As to QLVKKLNDSDHQSSTSPLMEGTPT [VPS39], the protein stability index is, setting by setting: under setting [1], 4.87 ± 0.22; under setting [2], 4.9 ± 0.09.

Consider QMPQEEVELLPPAPKGKGRKPAAG [BRD3], for which the protein stability index was 4.98 ± 0.39 under setting [1] and 5.1 ± 0.18 under setting [2].

In the case of QNPVLSKLLMADQDSPLDLTVRKS [LCOR], the protein stability index was 4.14 ± 0.27 under setting [1] and 4.25 ± 0.21 under setting [2].

Sequence QNRVFAYLCKRVPHTVLDRQLLCL [CEP70] yielded a protein stability index under setting [1] of 2.46 ± 0.76 and a protein stability index under setting [2] of 2.46 ± 0.59.

Regarding QPKPLLLPAAPKTQTISSIPPQT [ATF6], the protein stability index reads like this: under setting [3], 4.73 ± 0.23; under setting [4], 4.65 ± 0.34.

Take QPLSPASSSYSVSSPRSVDSYSST [ATF6]: the protein stability index came out at 4.38 ± 0.22 under setting [1] and 4.59 ± 0.28 under setting [2].

In turn, QPPPPPPPPPMQPTVPSAATSQPT [CCDC6] yielded a protein stability index under setting [1] of 5.11 ± 0.16 and a protein stability index under setting [2] of 5.29 ± 0.062.

Consider QPTTLVLPPQYVDDVISRIDRMFP [MED27], for which the protein stability index is, setting by setting: under setting [1], 3.67 ± 0.24; under setting [2], 3.98 ± 0.074.

For QQDFLGLPEELRRLSGLSSVGHNW [C22orf15], the protein stability index was 2.96 ± 0.21 under setting [1] and 3.11 ± 0.14 under setting [2].

As for QRHPRLRPQSAQSSFPPSPGPSPD [AUP1], the protein stability index runs as follows: under setting [1], 4.76 ± 0.21; under setting [2], 4.97 ± 0.18.

QRKVDGIQKAYDELRLQSEAFKKH [CCDC89]: the protein stability index came to 4.07 ± 0.19 under setting [1] and 4.21 ± 0.3 under setting [2].

QRPFIRMSWEKEEGKSRHVDFQCV [BTBD10]: the protein stability index amounted to 2.95 ± 0.24 under setting [1] and 3.04 ± 0.37 under setting [2].

As for QRSPLGGDVLHAHLDIWKSAAWMK [SPDEF], the protein stability index is, setting by setting: under setting [1], 2.61 ± 0.37; under setting [2], 2.58 ± 0.45.

Consider QSDVGVAVFENKIYVVGGYSWNNR [KLHL13], for which the protein stability index came out at 2.19 ± 0.34 under setting [1] and 2.26 ± 0.12 under setting [2].

On to QSFCGENIMMPMGGMMPPGPGIPP [ZNF207], for which the protein stability index amounted to 3.15 ± 0.31 under setting [1] and 3.27 ± 0.26 under setting [2].

As to QSKILKVIRKNIVKKCLELFSELA [HSP90AB1], the protein stability index amounted to 2.47 ± 0.37 under setting [1] and 3.39 ± 0.91 under setting [2].

With QSLRCDLIRYICGVVHPSNEVLSS [INTS3], the protein stability index under setting [1] was 2.33 ± 0.34 and the protein stability index under setting [2] amounted to 2.19 ± 0.45.

For the sequence QSTDGARGKRGYSRGLHAWEISWP [SPSB2], the protein stability index by setting is: under setting [1], 2.9 ± 0.14; under setting [2], 2.75 ± 0.39.

As to QTLDVNRDGGLCVNDLAVGLRRLG [SLC25A25], the protein stability index turned out to be 2.98 ± 0.23 under setting [1] and 3.18 ± 0.3 under setting [2].

Take QVKASSPVPATPILQLEECCTHNN [TRIM9]: the protein stability index was found to be 4.9 ± 0.21 under setting [1] and 4.923 ± 0.028 under setting [2].

On to QVTCLRTQVLEDSEDSFCRRHPGL [TRAF3IP2], for which the protein stability index is, setting by setting: under setting [1], 4.05 ± 0.2; under setting [2], 4.08 ± 0.35.

On to QYIAQFTSQFLSLQCLQALYVDSL [PRAME], for which the protein stability index reads like this: under setting [1], 3.237 ± 0.011; under setting [2], 3.47 ± 0.23.

In the case of RAHAEIRKMSLLKFLAKVNGSDPR [MAGEA10], the protein stability index under setting [1] turned out to be 2.37 ± 0.26 and the protein stability index under setting [2] was 2.57 ± 0.58.

Regarding RAQLPKYQRNLPRPGQAPIGNPPV [ZNF207], the protein stability index was 3.75 ± 0.26 under setting [1] and 3.79 ± 0.14 under setting [2].

Turning to RATRAGAAEEPGVRGLLASLFAFK [C2CD2L], the protein stability index under setting [1] is 3.1 ± 0.75 and the protein stability index under setting [2] is 3.01 ± 0.57.

In the case of RCCGAASYQDWQQNLYFNCSSPGV [TSPAN10], the protein stability index was determined as 2.37 ± 0.42 under setting [1] and 2.33 ± 0.66 under setting [2].

With RDDLEALGHMFMYFLRGSLPWQGL [CSNK1G3], the protein stability index was determined as 3.19 ± 0.37 under setting [1] and 2.93 ± 0.15 under setting [2].

For the sequence REPAGRWKEGRPRVEESGSKKEGK [PBXIP1], the protein stability index by setting is: under setting [1], 5.34 ± 0.21; under setting [2], 5.36 ± 0.21.

Regarding RFVQDLVRALEQEKLQGVECGLR [DAPK3], the protein stability index worked out at 2.92 ± 1.3 under setting [3] and 2.14 ± 0.067 under setting [4].

On to RKAALEQDLAFWYGPRWQEVIPYT [HMOX1], for which the protein stability index was determined as 2.33 ± 0.23 under setting [1] and 2.54 ± 0.39 under setting [2].

With RKPCKLMLQVVKILVVTVQLILFG [MCOLN1], the protein stability index was determined as 2.44 ± 0.33 under setting [1] and 2.47 ± 0.32 under setting [2].

As for RLKFPIDYPYSPPAFRFLTKMWHP [CDC34], the protein stability index is 2.49 ± 0.48 under setting [1] and 2.09 ± 0.15 under setting [2].

RLQHICELFIITQLQSMPSRELAS [RHOBTB3] returned a protein stability index under setting [1] of 3.19 ± 0.5 and a protein stability index under setting [2] of 3.33 ± 0.63.

RLYVDKSLNLSTEFISSTKRPYAK [SERPINB5] returned a protein stability index under setting [1] of 3.41 ± 0.76 and a protein stability index under setting [2] of 3.46 ± 0.5.

As to RMPLLTPRYITDVIDAEPFIRCSL [KLHL12], the protein stability index was found to be 2.27 ± 0.28 under setting [1] and 1.84 ± 0.52 under setting [2].

With RMTSAAHYYPKLMSIMGNVLRFLP [GFOD1], the protein stability index amounted to 2.32 ± 0.39 under setting [1] and 2.15 ± 0.36 under setting [2].
